Common to all, as to assay: IEDB peptide-MHC binding, purified MHC/competitive/radioactivity; filed as Kd, often an IC50 or EC50 that approximates it; ≥ and ≤ were set here for values at or beyond the usual limits of such assays
Experiment [1] concerns the target HLA-A*11:01.
Experiment [2] concerns the target HLA-A*33:01.
Experiment [3] has as its target HLA-A*03:01.
Experiment [4] has as its target HLA-A*31:01.
Experiment [5] concerns the target HLA-A*68:01.
The mark [6] stands for this setting: source organism: Lassa virus Josiah.
Where [7] appears, read: source organism: Vaccinia virus WR.
Where [8] appears, read: source organism: SARS coronavirus Tor2.
The mark [9] stands for this setting: source organism: Vaccinia virus LC16M8.
The mark [10] stands for this setting: source organism: Vaccinia virus Copenhagen.
Where [11] appears, read: source organism: Triticum aestivum.

With TLTNTSIINH, the Kd in experiment [1] (setting [6]) was 15400 nM; in experiment [2] (setting [6]), at least 70000 nM; in experiment [3] (setting [6]), 5160 nM; in experiment [4] (setting [6]), at least 59800 nM; in experiment [5] (setting [6]) it was 13100 nM.

Regarding WLSSKGLACY, the Kd is at least 28900 nM in experiment [1] (setting [7]); at least 58600 nM in experiment [2] (setting [7]); 418 nM in experiment [3] (setting [7]); 19500 nM in experiment [4] (setting [7]); at least 28300 nM in experiment [5] (setting [7]).

Regarding GLTTHCTKLR, the Kd in experiment [1] (setting [7]) was 4630 nM; in experiment [2] (setting [7]), 4210 nM; in experiment [3] (setting [7]), 5180 nM; in experiment [4] (setting [7]), 511 nM; in experiment [5] (setting [7]) it was 12100 nM.

Regarding KTDFKVVKK, the Kd was 60.6 nM in experiment [1] (setting [7]); 1210 nM in experiment [2] (setting [7]); 14.8 nM in experiment [3] (setting [7]); 71.1 nM in experiment [4] (setting [7]); 365 nM in experiment [5] (setting [7]).

As for PQVGGLTSIK, the Kd in experiment [1] (setting [8]) is 6370 nM; in experiment [2] (setting [8]), at least 70000 nM; in experiment [3] (setting [8]), at least 10000 nM; in experiment [4] (setting [8]) it was at least 70000 nM; in experiment [5] (setting [8]) it was at least 37500 nM.

On to AVHDFFKFR, for which the Kd turned out to be 7.56 nM in experiment [1] (setting [8]); 273 nM in experiment [2] (setting [8]); 7140 nM in experiment [3] (setting [8]); 4.9 nM in experiment [4] (setting [8]); 11.3 nM in experiment [5] (setting [8]).

Consider ATKIIALNK, for which the Kd is 334 nM in experiment [1] (setting [8]); at least 77700 nM in experiment [2] (setting [8]); 1360 nM in experiment [3] (setting [8]); 840 nM in experiment [4] (setting [8]); 15900 nM in experiment [5] (setting [8]).

As for KSKNINIEVK, the Kd in experiment [1] (setting [7]) was 568 nM; in experiment [2] (setting [7]), at least 70000 nM; in experiment [3] (setting [7]), 305 nM; in experiment [4] (setting [7]), 1070 nM; in experiment [5] (setting [7]), 13300 nM.

With SFYYIWKSY, the Kd turned out to be 6730 nM in experiment [1] (setting [8]); 779 nM in experiment [2] (setting [8]); 5150 nM in experiment [3] (setting [8]); 68.1 nM in experiment [4] (setting [8]); 447 nM in experiment [5] (setting [8]).

Take MLAHAEETRK: the Kd in experiment [1] (setting [8]) is 6390 nM; in experiment [2] (setting [8]), at least 70000 nM; in experiment [3] (setting [8]), 496 nM; in experiment [4] (setting [8]), 9410 nM; in experiment [5] (setting [8]) it was 157 nM.

On to LFASADNHPK, for which the Kd in experiment [1] (setting [9]) worked out at 85.9 nM; in experiment [2] (setting [9]) it was 9860 nM; in experiment [3] (setting [9]), 399 nM; in experiment [4] (setting [9]) it was 9330 nM; in experiment [5] (setting [9]), 264 nM.

Take VTYVPSQER: the Kd turned out to be 883 nM in experiment [1] (setting [8]); 341 nM in experiment [2] (setting [8]); 3270 nM in experiment [3] (setting [8]); 23.6 nM in experiment [4] (setting [8]); 1130 nM in experiment [5] (setting [8]).

On to SSLDQTHIK, for which the Kd in experiment [1] (setting [10]) worked out at 31.8 nM; in experiment [2] (setting [10]) it was 19800 nM; in experiment [3] (setting [10]) it was 961 nM; in experiment [4] (setting [10]), 26 nM; in experiment [5] (setting [10]), 1490 nM.

For QLDEKSSIK, the Kd in experiment [1] (setting [7]) is 510 nM; in experiment [2] (setting [7]), at least 56800 nM; in experiment [3] (setting [7]) it was 204 nM; in experiment [4] (setting [7]), 4300 nM; in experiment [5] (setting [7]), 14000 nM.

For LTILDDNLYK, the Kd in experiment [1] (setting [10]) was 3.38 nM; in experiment [2] (setting [10]), 17700 nM; in experiment [3] (setting [10]) it was 229 nM; in experiment [4] (setting [10]), 6840 nM; in experiment [5] (setting [10]) it was 19.5 nM.

With SLSVETITEK, the Kd in experiment [1] (setting [7]) was 117 nM; in experiment [2] (setting [7]) it was at least 70000 nM; in experiment [3] (setting [7]), 33.2 nM; in experiment [4] (setting [7]), 1250 nM; in experiment [5] (setting [7]), 12200 nM.

Regarding TQVLKTMSLY, the Kd in experiment [1] (setting [8]) is 2670 nM; in experiment [2] (setting [8]) it was at least 27600 nM; in experiment [3] (setting [8]) it was 185 nM; in experiment [4] (setting [8]), 9420 nM; in experiment [5] (setting [8]), 10300 nM.

Regarding QQHNIVHGK, the dissociation constant Kd is 914 nM in experiment [1] (setting [11]); at least 77700 nM in experiment [2] (setting [11]); 12500 nM in experiment [3] (setting [11]); 2370 nM in experiment [4] (setting [11]); 728 nM in experiment [5] (setting [11]).

Turning to NFMVSVSDFR, the Kd was 4030 nM in experiment [1] (setting [7]); 33.1 nM in experiment [2] (setting [7]); 9960 nM in experiment [3] (setting [7]); 93.9 nM in experiment [4] (setting [7]); 6.56 nM in experiment [5] (setting [7]).

For DLIVTFRER, the Kd was found to be 8140 nM in experiment [1] (setting [7]); 14.8 nM in experiment [2] (setting [7]); 12700 nM in experiment [3] (setting [7]); 509 nM in experiment [4] (setting [7]); 19.8 nM in experiment [5] (setting [7]).

NATDFWRLY: the Kd in experiment [1] (setting [7]) was found to be 126 nM; in experiment [2] (setting [7]), 526 nM; in experiment [3] (setting [7]), 44.1 nM; in experiment [4] (setting [7]), 477 nM; in experiment [5] (setting [7]), 52.3 nM.

Take DIICEDAMY: the Kd in experiment [1] (setting [7]) was at least 77900 nM; in experiment [2] (setting [7]), at least 20200 nM; in experiment [3] (setting [7]) it was at least 78000 nM; in experiment [4] (setting [7]), at least 77900 nM; in experiment [5] (setting [7]) it was 4550 nM.

With KLITPNYMK, the Kd was 5.08 nM in experiment [1] (setting [7]); at least 59300 nM in experiment [2] (setting [7]); 10.3 nM in experiment [3] (setting [7]); 486 nM in experiment [4] (setting [7]); 2790 nM in experiment [5] (setting [7]).

The Kd is the constant that tells how readily two partners part at equilibrium.

Source of the values: the Immune Epitope Database (IEDB).
